± gives the uncertainty stated by the source.

This series can be described thus: amyloid nucleation score (Sup35N fusion, yeast selection) (log enrichment); library NNK3; higher = more nucleation; inactive = no reads after selection. Summed up:
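Random libraries were run with three technical output replicates. In each, psi-negative yeast expressing Sup35N fused to peptides of 20 random codons were induced 24 hours with 100 μM copper sulfate and grown 7 days at 30°C on medium lacking adenine and uracil, and input and output plasmid inserts were Illumina-sequenced. The nucleation score is the DiMSum log enrichment of output over input reads, centred on the mode score of non-aggregating sequences, and sequences under 100 input reads were excluded.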
Take VNNKSFCRWAGANNLLQVMH: the amyloid nucleation score result was “inactive”. Under QQHAVR stands “inactive”; under PKVRMAPVNERNDFFSVILG, “inactive”; under WVCPCKSGMSQNWRFYNPSR, “inactive”. For the substance VAEEHSVLSCQDADFCASSL, the amyloid nucleation score result is “inactive”. As for FLPPKMVLFPVSEWSLDLRY, the entry is “inactive”; as for GLDHSKGYLQLS, “inactive”. Regarding RPPHYQCMCSLVLSSRRNIQ, the amyloid nucleation score result is “inactive”. As for IPVSHVAMNGECGWVSDIKH, the entry is “inactive”; as for SLYRWYVQMRGIR, “inactive”. As for MIIPSTVMQSLSTCILERAS, the entry is “inactive”; as for SDGNSMLGDFRVRMVCHMLL, “inactive”. LYLIFFCLWSSQLDAQLFVL yielded an amyloid nucleation score of -0.217 ± 0.93. As for LGNGSLVIG, the figure is 0.033 ± 0.27. With WISSSGIPFDRYLLWYNSVG, the amyloid nucleation score result was “inactive”. On to GRSSCLSTFC, for which the amyloid nucleation score result was “inactive”. As for IKMNNDGSMILWSLSSPTDL, the entry is “inactive”. Consider WSLMCRVAYRYGRVRNSKSG, for which the amyloid nucleation score entry is “inactive”. As for KWFRHFHI, the entry is “inactive”.

Turning to RTKKMRNGASHRVMS, the amyloid nucleation score result is “inactive”. Under HFQCLMSVRSGSNQTRDILL stands 1.28 ± 0.15; under VKMTGDVVTLHLRDLINCWA, “inactive”; under TESQRSNWCTASIKSMYSYS, “inactive”. In the case of SVALYVPLQSYSQQFLEVAT, the amyloid nucleation score result was “inactive”.

With LKSST, the amyloid nucleation score entry was “inactive”. For DSLAVFNNVRRSMTVSRSAA, the amyloid nucleation score is -0.89 ± 1.3. For the substance MTYHDGTGLFGVVL, the amyloid nucleation score result was “inactive”. As for YDSYTGRHNKLILRM, the entry is “inactive”; as for IRLCLLSIMWLNGWLSAIHA, “inactive”; as for HSSSYCSSYKERSIPWSW, 0.93 ± 0.12.

On to TKTFSDVMLYQCAARCKDLH, for which the amyloid nucleation score entry was “inactive”. For EISLPLFFATLGYFFWIAMR, the amyloid nucleation score entry is “inactive”. As for FGFCCKAPCVGSLWVPSVVT, the entry is “inactive”. As for DMACMVFGWE, the entry is “inactive”; as for SECWKAFDLGYDNKLSIPRI, “inactive”. For RPVAFPIR, the amyloid nucleation score entry was “inactive”. As for IRDYVFRLYYRLNCMIRKRG, the entry is “inactive”.

As for GAQKYSFPRVSWPILGRIDY, the amyloid nucleation score entry was “inactive”.

QPLARRIGHISV: the amyloid nucleation score entry is “inactive”.

With DMRVFANMWLVEIPVPS, the amyloid nucleation score result was “inactive”. As for YIVWCHVVWLADCR, the entry is “inactive”.

For the substance SRFLKCF, the amyloid nucleation score result was “inactive”. As for WAGESLS, the amyloid nucleation score result is “inactive”. As for NTRLSRLKIVFPCL, the entry is “inactive”; as for STIVL, “inactive”; as for YWVGEWLMCPYTR, “inactive”. Turning to YSPSLGSDQACSQLCSLSTF, the amyloid nucleation score entry was “inactive”. Under NFLYWHRWVVWSSMSSYRKP stands -0.348 ± 0.63; under LFRLACVTNMRSNLLSYRRC, 0.131 ± 0.64; under RATKVDVRGGVA, -0.911 ± 1.5. As for RYRNIYC, the amyloid nucleation score result was “inactive”.

As for NNCSQVHKTRD, the amyloid nucleation score result was “inactive”. As for LIPIW, the entry is “inactive”; as for TMSLFTTSVCCWTKGAIRHS, “inactive”; as for ADMGGSVGHVSNKSVSSNLL, “inactive”. Regarding LLLIGINVKMFWSFRVWLCN, the amyloid nucleation score result was “inactive”. Consider RTCSLRCFCYCHLYFYDVNT, for which the amyloid nucleation score entry was “inactive”.

Consider CNANGASAVKF, for which the amyloid nucleation score result is “inactive”. As to ASGSHSVT, the amyloid nucleation score result is “inactive”.

Consider PSYFVI, for which the amyloid nucleation score result was “inactive”. Under MIGHFTYVGLWGSLATYVQV stands “inactive”. In turn, SLSTSNLNIKLSPCYSFNRH registered an amyloid nucleation score of 0.678 ± 0.31. The substance NMETYLFANVMLFGKPGLLS had an amyloid nucleation score of 1.01 ± 0.12. As for AITYTTSLKVSFVSKGVSGA, the figure is 0.614 ± 0.32; as for RNCYCWASVDI, “inactive”; as for RLVDLAWRCYKIDKCLTCSS, -0.589 ± 0.93. On to VYVMRGSVIWLCRMSMGCCA, for which the amyloid nucleation score entry was “inactive”. As for NEGWPLWQWSSAVKHTFSKR, the figure is 0.422 ± 0.31. Under LHLTDLYYGF stands “inactive”; under HVLYRRSSPYCVRWCNITER, “inactive”.

Regarding TGSMFRSRPRSEG, the amyloid nucleation score entry is “inactive”.

For the substance IYVVRIYVSWVNILHALVYS, the amyloid nucleation score result is “inactive”.

On to GNSIRAVVLLRMGLELDSGV, for which the amyloid nucleation score result is “inactive”.

For the substance RECVMETWSQVGRWFTCVRV, the amyloid nucleation score entry is “inactive”. As for FELPSVKGGCILPSQILP, the figure is -0.517 ± 0.73; as for SFLHTQSAKDTFVHNAVTYT, “inactive”.

As for DVMRVWFTEYSMSTTVGMAV, the amyloid nucleation score entry was “inactive”.

For MFLSWCKKVNLRMIILSSDT, the amyloid nucleation score entry is “inactive”. As for FVVLLGFYHLASQDAYRGAL, the figure is 1.09 ± 0.14; as for LTKGLSAMLQFRWRAVFKNG, “inactive”.

Consider WYGLA, for which the amyloid nucleation score result was “inactive”. As for LSTMN, the entry is “inactive”; as for DHPYQRLIEWWLLCIYGSMY, “inactive”; as for SSFFRMLVLIVMRCQDTSNR, “inactive”.

With LNWGLVTDSTFIWLMDTLRL, the amyloid nucleation score came to 1.05 ± 0.11.

For the substance QKMPSANDRLCISSFLYNLE, the amyloid nucleation score result is “inactive”.

In the case of EVYLETCRGILFCALDTIFG, the amyloid nucleation score is -0.264 ± 1. Under DVFDYVSTVVTNYW stands “inactive”. GLRVQCWECTIRSFGV gave an amyloid nucleation score of 0.448 ± 0.24. As for SVRGITQLSSTLHVRLVITS, the entry is “inactive”. Under QKVYNFMWYLFQYIELVYMN stands “inactive”; under PCECTNHLACDNIPMRYTE, “inactive”. As for YKTRTKKVS, the entry is “inactive”; as for LKYFQVRT, “inactive”. MGVVRFTYCDIKV: the amyloid nucleation score result was “inactive”. As for KRVRVRFASAMHGLMSHPDT, the entry is “inactive”. Under YISLDVTSIVGFVENIKQCV stands 1.65 ± 0.068; under SPFEFRCIVESEFCMKNWAG, 0.866 ± 0.25.

QTTLSYIVCMQSRQLRNRAW showed an amyloid nucleation score of 0.848 ± 0.099. Under VSLIVLVRSVCSCVTHSFYE stands 2.08 ± 0.097. Regarding INFYVSFYIIVTCYVVAHCV, the amyloid nucleation score is 1.32 ± 0.15.

Take WNGILHMMVGGLKTLIGMDY: the amyloid nucleation score result was “inactive”. Consider GGLVSCLSAARIGHHGASLE, for which the amyloid nucleation score result is “inactive”.

On to IELLCGLDIT, for which the amyloid nucleation score result was “inactive”.

In the case of SQASLFFSGWWILFTYMLGW, the amyloid nucleation score entry was “inactive”. FKDFIIICLAKLFGIFYDTD: the amyloid nucleation score result was “inactive”. Under ANECDGVYNGAKCSRWNFLL stands “inactive”; under DIYFCYNIDFLYRVTLRQLR, “inactive”. As for TRITMASSREV, the entry is “inactive”. Regarding YFQTIVFRGTSGYCIVNQQV, the amyloid nucleation score worked out at 1.97 ± 0.1. For DKNSWLYSASEYIWFFNTES, the amyloid nucleation score entry is “inactive”. Under INVDWFSPFGVLKNSSK stands “inactive”; under TLIRRVYVRRFYTGIEVGST, “inactive”. Under IMRSY stands “inactive”; under AWTGGSLGLTNI, “inactive”; under RSVVLNRADMECKQELVNLN, “inactive”. As for IWVGRTDFWFWHVTGEDCLG, the entry is “inactive”; as for VTRGVLLCEPVTGMHQVACG, “inactive”; as for VAFTLIVRFCS, “inactive”. On to SSLVL, for which the amyloid nucleation score entry was “inactive”. For the substance LQAHCSNFWVFYMAFGPIDF, the amyloid nucleation score came to 1.76 ± 0.095.

With ASFFNILNPISIVVILKRFC, the amyloid nucleation score result was “inactive”. Under SLGLNTPAREFYWGCILTFG stands “inactive”; under SACNAPSLNSTLIVT, “inactive”. In the case of NYWSTQLSIFCCKDCATTSA, the amyloid nucleation score was 2.42 ± 0.063. Under FKPTRSHQGSFSSVTMFLVG stands 0.261 ± 0.29; under EVCQCRPTTVSLARVGRIVV, “inactive”.

For SSACYTVLPGKAPTPAYPLL, the amyloid nucleation score entry was “inactive”. Under DVMRGIKYVRRVNAQLTGSS stands “inactive”; under NFFTL, “inactive”.

DKCRVCISFC: the amyloid nucleation score amounted to 1.14 ± 0.13.

(Values after the supplement of paper PMC12042874.)
